In the supplement of paper PMC9170038:

Test system: MS2 coat protein
Test: apparent KD of MS2 coat protein; designed switch direction (-1 OFF switch, 1 ON switch): -1; higher = weaker reporter binding
Procedure, shortened: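 RNA switches sharing common flanks were transcribed by stalled E. coli RNA polymerase on Illumina chips. A doubling series of SNAP-549-labelled MS2 coat protein, from 0.7 or 1.5 nM to 3 µM, was applied in Tris-HCl pH 7.5 buffer with KCl, MgCl2, BSA, DTT, tRNA and Tween-20. Each step lasted 0.8–1.5 h at the bottom of the series and 10–20 min at the top. Normalised cluster fluorescence was curve-fitted, giving apparent KD as the per-design median over clusters.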

[1] = input ligand: microRNA oligo, concentration not stated
[2] = Eterna round: R95, input ligand: FMN 200 uM
[3] = Eterna round: R95, input ligand: microRNA oligo, concentration not stated
[4] = Eterna round: R95, input ligand: none

## UUAAUUAGCAGACUAAUACCUCACAUGAGGAUCACCCAUGUGCAGGAUAUCAGCUCGAUUAGAGCUGAGAAGGGCACUGUCUGC [ExNG3/12-A1] (Eterna round: R96, puzzle: Exclusion NG 3)
Input ligand: FMN 200 uM
  apparent KD of MS2 coat protein: 0.0148 µM
[1]
  apparent KD of MS2 coat protein: 0.00801 µM
Input ligand: none
  apparent KD of MS2 coat protein: 0.0113 µM

## AACCUGAGGCUUUGCUUUAGGUUUACAUGAGGAUCACCCAUGUAGGAUAUGGUAGGCUUUGCUUACCAGAAGGACAUGUUAAUU [Mat - Exclusion NG 3 - Mod of JL - D26] (Eterna round: R96, puzzle: Exclusion NG 3)
Input ligand: FMN 200 uM
  apparent KD of MS2 coat protein: 0.241 µM
[1]
  apparent KD of MS2 coat protein: 0.025 µM
Input ligand: none
  apparent KD of MS2 coat protein: 0.0442 µM

## AAAUACCGGUGAGGAUAUUUUUAAUAGAGCUUUAUGAUAUACAUGAGGAUCACCCAUGUUACGUUAAAGAAGGCAUCGGAUAAA [Mat - Exclusion NG 2 - Mod of JL - D98] (Eterna round: R96, puzzle: Exclusion NG 2)
[1]
  apparent KD of MS2 coat protein: 0.0139 µM

## AAGUACCGUCACGAAAGUGAUGGUACAACAAGCAUGUAAACAUGAGGAUCACCCAUGUCCUCAAAUGCUCGUCUUAU [Sensor 3 - 62] (puzzle: Sensor v3, turn-off variant 2)
[2]
  apparent KD of MS2 coat protein: 0.732 µM
[3]
  apparent KD of MS2 coat protein: 2.02 µM
[4]
  apparent KD of MS2 coat protein: 0.776 µM

## CGAGUCUACGAGGAUAUACUUUGAAUUAUCGGCGUAGAAGGCGUGACUUGAGGAUCACCCAAGUGAUAAACCUA [Ririaned] (Eterna round: R97, puzzle: Exclusion 6)
Input ligand: FMN 200 uM
  apparent KD of MS2 coat protein: 0.0541 µM
Input ligand: none
  apparent KD of MS2 coat protein: 0.0396 µM

## CUGAGCAGACGGAGAUCCAACAUGAGGAUCACCCAUGUCUCACAAGCUUUUUGCUUGUCUUAUUCUCCUCUGUUCUC [Leveasodi] (puzzle: Sensor v3, turn-off variant 1)
[2]
  apparent KD of MS2 coat protein: 0.0128 µM
[3]
  apparent KD of MS2 coat protein: 0.0166 µM
[4]
  apparent KD of MS2 coat protein: 0.0121 µM

## ACGGCAUAAGGAUAUGCAAGGUGCUGACUUCCUCCGUCAUUACAUGAGGAUCACCCAUGUAGAAGGUAUGUACC [Eternabot (Original) Solution 9] (Eterna round: R97, puzzle: Exclusion 2)
Input ligand: FMN 200 uM
  apparent KD of MS2 coat protein: 0.0184 µM
Input ligand: none
  apparent KD of MS2 coat protein: 0.0185 µM

## CCAAAUCAUGUAGGAUAUGCGUGGCGAAGCUAUGCAGAAGGACAUGAGGAUCACCCAUGUGCUUCCGUCUGCGUACAGACGGUA [JL ENG1 1.15] (Eterna round: R96, puzzle: Exclusion NG 1)
Input ligand: FMN 200 uM
  apparent KD of MS2 coat protein: 0.123 µM
[1]
  apparent KD of MS2 coat protein: 0.103 µM
Input ligand: none
  apparent KD of MS2 coat protein: 0.118 µM

## AUUAAUCAUGUAGGAUAUGCGUGGCGAAGCUAUGCAGAAGGACAUGAGGAUCACCCAUGUUCUAGCGUCUGCGUACAGAUGCUA [JL ENG1 1.37] (Eterna round: R96, puzzle: Exclusion NG 1)
Input ligand: FMN 200 uM
  apparent KD of MS2 coat protein: 0.349 µM
[1]
  apparent KD of MS2 coat protein: 0.0295 µM
Input ligand: none
  apparent KD of MS2 coat protein: 0.0376 µM

## CUCAGACAUGAGGAUCACCCAUGUGAGGAUAUGAUGCGAUCGUCGAAAGACGAUAGCAUCAGAAGGUACAAAUG [Fiskers Ex 1 - 20] (puzzle: Exclusion 1)
[3]
  apparent KD of MS2 coat protein: 0.0553 µM

## CAGUACUGAGGAUAUACAUGAGGAUCACCCAUGUGUGUGAGAAAAGGAAGAAAAGAAUGUAGAAGGCGGUGCUG [JR_Ex3_Sub040] (Eterna round: R97, puzzle: Exclusion 3)
Input ligand: FMN 200 uM
  apparent KD of MS2 coat protein: 0.24 µM
Input ligand: none
  apparent KD of MS2 coat protein: 0.486 µM

## GUCCUUAACGAGGAUAUCGGGCGGGUUUUUGUUUGAGAAGGCGUGACAUGAGGAUCACCCAUGUGGCGCGUGGG [-24.6, -21.7 kcal, A 19%] (Eterna round: R97, puzzle: Exclusion 6)
Input ligand: FMN 200 uM
  apparent KD of MS2 coat protein: 0.0367 µM
Input ligand: none
  apparent KD of MS2 coat protein: 0.0297 µM

## GAACUGAAGCAUAGCUUUAGUCGUACAUGAGGAUCACCCAUGUAGGAUAUGGUAGGCAUAGCUUACUAGAAGGAUAGAGUGAUC [Mat - Exclusion NG 3 - Mod of JL - D73] (Eterna round: R96, puzzle: Exclusion NG 3)
Input ligand: FMN 200 uM
  apparent KD of MS2 coat protein: 0.595 µM
[1]
  apparent KD of MS2 coat protein: 0.411 µM
Input ligand: none
  apparent KD of MS2 coat protein: 0.243 µM

## CAUACUAAAGUCAGGAUAUGCGGCCGAAUACGGGUGUAGAAGGGACAUGAGGAUCACCCAUGUAGAUAGUAAAG [EX-4 Malc #17] (puzzle: Brourd's mod of Exclusion 4)
[2]
  apparent KD of MS2 coat protein: 0.0291 µM
[3]
  apparent KD of MS2 coat protein: 0.0231 µM
[4]
  apparent KD of MS2 coat protein: 0.0222 µM

## UUCGGCGGAGGAUAUACAGUUUUUUGUUGAAUCGGCGGAAAACAUGAGGAUCACCCAUGUAGAAGGUUGUUGAA [-19.8, -17.1 kcal, A 28%] (Eterna round: R97, puzzle: Exclusion 2)
Input ligand: FMN 200 uM
  apparent KD of MS2 coat protein: 0.0642 µM
Input ligand: none
  apparent KD of MS2 coat protein: 0.0656 µM

## GGUGGACAUGAGGAUCACCCAUGUGAGGAUAUCGGCUGGCUAGCGGCGGACGGCUGCUCGAGAAGGCGCAUUGU [Exclusion 1 V84] (puzzle: Exclusion 1)
[3]
  apparent KD of MS2 coat protein: 0.0611 µM

## ACAGGUUUCAUAGGAUAUCUCUGACUAUGGCACUCCUUGUGUCCACAUGAGGAUCACCCAUGUCGAGAGAAGGGUGCACCUGCG [Arenena] (Eterna round: R96, puzzle: Exclusion NG 2)
Input ligand: FMN 200 uM
  apparent KD of MS2 coat protein: 0.147 µM
[1]
  apparent KD of MS2 coat protein: 0.0649 µM
Input ligand: none
  apparent KD of MS2 coat protein: 0.0657 µM

## CUAGCGAUUGUAGGAUAUCGGACUGUUUCAGUCUGAGAAGGACAUGAGGAUCACCCAUGUGAACCAACGUGAGUUGGACGCUAG [JL ENG1 3.82] (Eterna round: R96, puzzle: Exclusion NG 1)
Input ligand: FMN 200 uM
  apparent KD of MS2 coat protein: 0.0511 µM
[1]
  apparent KD of MS2 coat protein: 0.0125 µM
Input ligand: none
  apparent KD of MS2 coat protein: 0.0194 µM

## UAUACUAGAUAGGAUAUACUUUAUUUUUUUUUCGUAGAAGGAUCUACAUGAGGAUCACCCAUGUUAACAGCAGU [JR_E6_Sub008] (puzzle: Exclusion 6)
[3]
  apparent KD of MS2 coat protein: 0.0551 µM

## AGCCACAGAGGAUAUACAUACAUCCAGUAGUUAAGAAUACUACAUGAGGAUCACCCAUGUAGAAGGCUGUGGCA [Omei Ex2 BD B6] (Eterna round: R97, puzzle: Exclusion 2)
Input ligand: FMN 200 uM
  apparent KD of MS2 coat protein: 0.383 µM
Input ligand: none
  apparent KD of MS2 coat protein: 0.0843 µM

## UGAUUGUUUACCAGGUUAUACAUGAGGAUCACCCAUGUAGAUCCUACGUGCACGUUAUACCGCUCGUCUUAUUCCCA [Sensor-V1 #76] (Eterna round: R97, puzzle: Sensor, turn-off variant 1)
Input ligand: FMN 200 uM
  apparent KD of MS2 coat protein: 0.0214 µM
Input ligand: none
  apparent KD of MS2 coat protein: 0.0207 µM

## CUCAGGUCAGGAUAUGUAGACCGGUGCAGACACUACGGGAAACAGAAGGGACAUGAGGAUCACCCAUGUUCGUA [EX4 B.11] (Eterna round: R97, puzzle: Exclusion 4)
Input ligand: FMN 200 uM
  apparent KD of MS2 coat protein: 0.045 µM
Input ligand: none
  apparent KD of MS2 coat protein: 0.0304 µM

## ACUUAUUGAGGAUAUACAUUAAAUUACAUGAGGAUCACCCAUGUUCUUCAAUGUAUAUAUGUAGAAGGCAGAAGAA [JL-ex5-4.27 Malcolm mod] (Eterna round: R97, puzzle: Exclusion 5)
Input ligand: FMN 200 uM
  apparent KD of MS2 coat protein: 0.0149 µM
Input ligand: none
  apparent KD of MS2 coat protein: 0.0164 µM

## GAUCAUGCAGGAUAUACAGUAUCCAUGAAAACAUGGAUCUAACAUGAGGAUCACCCAUGUAGAAGGGCAUGAUC [Omei Ex2 A24] (Eterna round: R97, puzzle: Exclusion 2)
Input ligand: FMN 200 uM
  apparent KD of MS2 coat protein: 0.0179 µM
Input ligand: none
  apparent KD of MS2 coat protein: 0.019 µM

## CCAUCGAGUGUGAGGAUAUGCUGGUCAAUAGAUCAGCAGAAGGCACAUGAGGAUCACCCAUGUGGAGACGGUGG [Mat - Exclusion 4 - JL Mod - D79] (puzzle: Brourd's mod of Exclusion 4)
[2]
  apparent KD of MS2 coat protein: 0.333 µM
[3]
  apparent KD of MS2 coat protein: 0.0448 µM
[4]
  apparent KD of MS2 coat protein: 0.0706 µM

## AAUUUGCAAGCGAGAUCCCACAUGAGGAUCACCCAUGUGCUCGUCUUAUAAGGUACUGUGACGAAAGUCACGGUACC [Mat - Sensor, turn-off var - Eli Mod - D92] (Eterna round: R97, puzzle: Sensor, turn-off variant 1)
Input ligand: FMN 200 uM
  apparent KD of MS2 coat protein: 0.0164 µM
Input ligand: none
  apparent KD of MS2 coat protein: 0.0129 µM

## CAGUAUUGAGGAUAUACAUGAGGAUCACCCAUGUGUUCCAGCUAGGAAACUAGCAAAAGUAGAAGGCAGUACUG [salish99_ex3_r3_085] (puzzle: Exclusion 3)
[3]
  apparent KD of MS2 coat protein: 0.021 µM

## AGGGCGGGAGGAUAUCCAAUAUAUGACAUGAGGAUCACCCAUGUUUCCACUCGUACCUCCGGAGAAGGCCCGCCGA [Ex5 #25] (Eterna round: R97, puzzle: Exclusion 5)
Input ligand: FMN 200 uM
  apparent KD of MS2 coat protein: 0.0212 µM
Input ligand: none
  apparent KD of MS2 coat protein: 0.0215 µM

## AUAAUGUAAGGAUAUCAGUCGACUAGCUGCGGCUAGUCGACUGAGAAGGUACAUGAGGAUCACCCAUGUGGUUC [E4/11-A3] (Eterna round: R97, puzzle: Exclusion 4)
Input ligand: FMN 200 uM
  apparent KD of MS2 coat protein: 0.185 µM
Input ligand: none
  apparent KD of MS2 coat protein: 0.304 µM

## GAUCGUUUAGAGGAUAUCGUGCUAAACAUUACAUGAGAAGGCUAGACAUGAGGAUCACCCAUGUAUACUCGUGA [Exclusion 6 - 8:a] (puzzle: Exclusion 6)
[2]
  apparent KD of MS2 coat protein: 0.0237 µM
[3]
  apparent KD of MS2 coat protein: 0.0147 µM
[4]
  apparent KD of MS2 coat protein: 0.0187 µM

## AAAUAAUAGAUAAAAUAAAACAUGAGGAUCACCCAUGUGGGAUGCUGAGGGUGAUACAAGCUUUUUGCUCGUCUUAU (puzzle: Sensor v3, turn-off variant 1)
[2]
  apparent KD of MS2 coat protein: 0.21 µM
[3]
  apparent KD of MS2 coat protein: 0.0577 µM
[4]
  apparent KD of MS2 coat protein: 0.182 µM

## AUUGUAUAGGAAGGAUAUAGAAUAUUAUUUUAACAUGAGGAUCACCCAUGUAACCUUAUGUGUAGCUAGAAGGUCCAUUUGUUA [Title] (Eterna round: R96, puzzle: Exclusion NG 2)
[1]
  apparent KD of MS2 coat protein: 0.228 µM

## CCAAGCUAUUUCAUAACAAACAUGAGGAUCACCCAUGUGUAAGCAAUUAUGUUUGGGCUCUUUAGUGCUCGUCUUAU [JR_STOV1_Sub046] (Eterna round: R97, puzzle: Sensor, turn-off variant 1)
Input ligand: FMN 200 uM
  apparent KD of MS2 coat protein: 0.0192 µM
Input ligand: none
  apparent KD of MS2 coat protein: 0.0192 µM

## ACAAGCUGGCUCGUCUUAUACAUGAGGAUCACCCAUGUUCUCAAGGUCUUAUGUACUGACACGAAAGUGUUAGUAAU [AK-miRNA-r3-2] (Eterna round: R97, puzzle: Sensor, turn-off variant 1)
Input ligand: FMN 200 uM
  apparent KD of MS2 coat protein: 0.0298 µM
Input ligand: none
  apparent KD of MS2 coat protein: 0.0302 µM
